Test results reported in patent US20170037124A1.

Tests used:
Assay in all cases: SPR, blank anti-hFc surface, 500 nM peptide, 25C
[1] = target: peptide from the N-terminal coiled-coil region of human ANGPTL3 (hANGPTL3 peptide, SEQ ID NO: 338) (human)
[2] = target: human ANGPTL8 peptide (hANGPTL8 peptide, SEQ ID NO: 337) (human)
[3] = target: peptide from the N-terminal coiled-coil region of human ANGPTL4 (hANGPTL4 peptide, SEQ ID NO: 339) (human)
peptide from the N-terminal coiled-coil region of human ANGPTL4 (hANGPTL4 peptide, SEQ ID NO: 339) (human), sequence (peptide, as listed by the source): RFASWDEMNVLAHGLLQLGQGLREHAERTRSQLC

human ANGPTL8 peptide (hANGPTL8 peptide, SEQ ID NO: 337) (human), sequence (peptide, as listed by the source): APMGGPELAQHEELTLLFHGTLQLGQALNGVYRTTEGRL
peptide from the N-terminal coiled-coil region of human ANGPTL3 (hANGPTL3 peptide, SEQ ID NO: 338) (human), sequence (peptide, as listed by the source): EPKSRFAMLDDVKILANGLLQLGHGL

500 nM hANGPTL3 peptide Bound (RU) [1]: 0 RU | 500 nM hANGPTL8 peptide Bound (RU) [2]: 3 RU | 500 nM hAngPTL4 peptide Bound (RU) [3]: 0 RU
Substance: monoclonal mouse anti-human Fc antibody (GE, # BR-1008-39)
